Measurements taken from article PMC4228395, “Detrimental effect of the 6 His C-terminal tag on YedY enzymatic activity and influence of the TAT signal sequence on YedY synthesis” (BMC Biochemistry, 2013).

Legend:
Experiment in all cases: purified protein
Format in all cases: biochemical, Cereibacter sphaeroides
Conditions in all cases: 0.2 mM dithionite-reduced benzyl viologen as electron donor, 100 mM MES pH 6.0, anaerobic
[1] = tested on: T1, C[S+](C)[O-]
T1 construct: mature enzyme, TAT signal peptide cleaved; N-terminal 6His tag cut off by TEV protease, GHM left at N-terminus; pSM196 in R. sphaeroides dmsA- strain; monomer

[2] = tested on: T2, C[S+](C)[O-]
T2 construct: mature enzyme expressed without TAT signal peptide; N-terminal 6His-TEV site kept; plasmid pSM181 in R. sphaeroides dmsA- strain

[3] = tested on: T3, C[S+](C)[O-]
T3 construct: mature periplasmic enzyme, TAT signal peptide cleaved; N-terminal 6His-TEV site (ENLYFQ) kept; plasmid pSM196 in R. sphaeroides dmsA- strain; monomer; molybdenum cofactor

YedY, No tag (+SS) (Cereibacter sphaeroides f. sp. denitrificans)
Km [1]: 61 ± 7 mM

YedY, N-ter tag (-SS) (Cereibacter sphaeroides f. sp. denitrificans)
Km [2]: 43 ± 6 mM

YedY, N-ter tag (+SS) (Cereibacter sphaeroides f. sp. denitrificans)
Km [3]: 71 mM
